# Source: US20170298096A1 (CANIMGUIDE THERAPEUTICS, published 2017)
# No end group written: not given here.
# T1: His-tagged P3028 peptide (PGE73) (human)
# T1 construct: also called His-tag-P3028; not shown: His-tag
# T1 peptide: VFDEFKPLVEEPQNLIK
# Target: Artificial Cell Surface (ACS): biotinylated cell surface proteins from mononuclear cells coupled to streptavidin-sepharose
# Test: adsorption on ACS column, MALDI-TOF MS
row,Binder,Percent Absorbed [%]
1,KYLYEIAR [trypsin-generated albumin fragment SEQ ID NO: 194 KYLYEIAR],71
2,DETYVPKEFNAETFTHA [Asp-N-generated albumin fragment SEQ ID NO: 220],86
3,LCTVATLR [trypsin-generated albumin fragment SEQ ID NO: 202 LCTVATLR],35
4,RPCFSALEVDETYVPK [trypsin-generated albumin fragment SEQ ID NO: 198 …],42
5,SLHTLFGDK [trypsin-generated albumin fragment SEQ ID NO: 200 …],36
6,YLYEIAR [trypsin-generated albumin fragment SEQ ID NO: 203 YLYEIAR],34
7,YLSVVLNQLCVLHEKTPVSDRVTKCCCTESLVNRRPFSALEV [Asp-N-generated albumin fragment SEQ ID NO: 230],37
8,NECFLQHK [trypsin-generated albumin fragment SEQ ID NO: 209 NECFLQHK],22
9,DKLCTVATLRETYGEM [Asp-N-generated albumin fragment SEQ ID NO: 222],65
10,ICTLSEKERQIKKQTALVELVKHKPKATKEQLKAVM [Asp-N-generated albumin fragment SEQ ID NO: 225],100
11,DHVKLVNEVTEFAKTCVA [Asp-N-generated albumin fragment SEQ ID NO: 217],100
12,QEPERNECFLQHK (not fully specified) [trypsin-generated albumin fragment SEQ ID NO: 211 …],18
13,KVPQVSTPTLVEVSR [trypsin-generated albumin fragment SEQ ID NO: 195 …],64
14,DDNPNLPR [trypsin-generated albumin fragment SEQ ID NO: 216 DDNPNLPR],1
15,FQNALLVR [trypsin-generated albumin fragment SEQ ID NO: 199 FQNALLVR],41
16,LAKYICENQDSISSKLKECCEKPLLEKHCIAEVEN [Asp-N-generated albumin fragment SEQ ID NO: 226],100
17,LKECCEKPLLEK [trypsin-generated albumin fragment SEQ ID NO: 201 …],36
18,AVMDDFAAFVEK [trypsin-generated albumin fragment SEQ ID NO: 208 …],23

row,Binder,Percent Absorbed [%]
1,DRVTKCCTESLVNRRPCFSALEV [Asp-N-generated albumin fragment SEQ ID NO: 219],87
2,VFLGMFLYEYARRHPDYSVVLLLRLAKTYETTLEKCCAAA [Asp-N-generated albumin fragment SEQ ID NO: 227],100
3,VPQVSTPTLVEVSR [trypsin-generated albumin fragment SEQ ID NO: 197 …],59
4,YICENQDSISSK [trypsin-generated albumin fragment SEQ ID NO: 214 …],3
5,LDELRDEGK [trypsin-generated albumin fragment SEQ ID NO: 215 …],2
6,KLCTVATLRETYGEMADCCAKQEPERNECFLQHK [Asp-N-generated albumin fragment SEQ ID NO: 224],100
7,VFDEFKPLVEEPQNLIK [trypsin-generated albumin fragment SEQ ID NO: 196 …],60
8,DDKETCFAEEGKKLVAASQAALGL [Asp-N-generated albumin fragment SEQ ID NO: 218],100
9,AAFTECCQAADK [trypsin-generated albumin fragment SEQ ID NO: 205 …],29
10,LGEENFKALVLIAFAQYLQQCPFEDHVKLVNEVTEFAKTCVA [Asp-N-generated albumin fragment SEQ ID NO: 228],100
11,FKDLGEENFK [trypsin-generated albumin fragment SEQ ID NO: 213 …],8
12,VHTECCHGDLLECADDR [trypsin-generated albumin fragment SEQ ID NO: 212 …],13
13,DSISSKLKECCEKPLLEKSHCIAEVEN [Asp-N-generated albumin fragment SEQ ID NO: 221],65
14,CCTESLVNR [trypsin-generated albumin fragment SEQ ID NO: 206 …],26
15,CCAAADPHECYAK [trypsin-generated albumin fragment SEQ ID NO: 204 …],32
16,RVTKCCTESLVNRRPCFSALEVDETYVPKEFNAETFTFHA [Asp-N-generated albumin fragment SEQ ID NO: 229],100
17,QEPERNECFLQHK (not fully specified) [trypsin-generated albumin fragment SEQ ID NO: 207 …],25
18,YSVVLLLRLAKTYETTLEKCCAAADPHECYAKVF [Asp-N-generated albumin fragment SEQ ID NO: 223],100

# Target: T1, His-tagged P3028 peptide (PGE73)
# Test: PEPSCAN ELISA; peptide on card, His-tagged P3028 in solution
# Experimental: (§1) After washing, the peroxidase substrate 2,2′-azine-di-3-ethylbenzthiazoline sulfonate (ABTS) and 2 μL of 3% H2O2 were added. The binding capacity of the mAb was measured as a color development at 405 nm (optical density, OD405). The color development was quantified with a charge-coupled device (CCD)—camera and an image processing system.
# (§2) The OD405-values obtained by a CCD-camera was considered as raw data values (“rampo values,” “rampo units,” or “rampo scores”). […] First the CCD-camera made a picture of the card before peroxidase coloring and then again a picture after the peroxidase coloring. […] These values were copied into an excel file and labeled as a raw data file. One follow-up manipulation was allowed. Sometimes a well can contain an air-bubble resulting in a false-positive value. If manual inspection of the cards detect an air-bubble the value are set to 0 for that well.
row,Binder,RAMPO Score [rampo units]
1,KKLDTEFVKLSLFTER (P28R variant on PEPSCAN card) [SEQ ID NO: 536],229
2,KKLDTDFVKLSLFTER (P28R variant on PEPSCAN card) [SEQ ID NO: 553],193
3,KKLDTFFVKDSLFTER (P28R variant on PEPSCAN card) [SEQ ID NO: 578],102
4,KKLDTFFVKESLFTER (P28R variant on PEPSCAN card) [SEQ ID NO: 582],81
5,KKLDTFKVKLSLFTER (P28R variant on PEPSCAN card) [SEQ ID NO: 535],232
6,KKLDTFFVKLLLFTER (P28R variant on PEPSCAN card) [SEQ ID NO: 548],213
7,KKLDTFFVKLSLFDER (P28R variant on PEPSCAN card) [SEQ ID NO: 567],159
8,KKLDTFFVKLSLFEER (P28R variant on PEPSCAN card) [SEQ ID NO: 576],110
9,KKLDTFFWKLSLFTER (P28R variant on PEPSCAN card) [SEQ ID NO: 537],228
10,KKLDTFFSKLSLFTER (P28R variant on PEPSCAN card) [SEQ ID NO: 545],216
11,KKLDTFFEKLSLFTER (P28R variant on PEPSCAN card) [SEQ ID NO: 570],139
12,KKLDTFFYKLSLFTER (P28R variant on PEPSCAN card) [SEQ ID NO: 549],211
13,KKLDTFFMKLSLFTER (P28R variant on PEPSCAN card) [SEQ ID NO: 540],221
14,KKLDTFFNKLSLFTER (P28R variant on PEPSCAN card) [SEQ ID NO: 550],203
15,KKLDTFFDKLSLFTER (P28R variant on PEPSCAN card) [SEQ ID NO: 574],122
16,KKLDTFFHKLSLFTER (P28R variant on PEPSCAN card) [SEQ ID NO: 547],213

row,Binder,RAMPO Score [rampo units]
1,KKLDTFFVKLSLFTGR (P28R variant on PEPSCAN card) [SEQ ID NO: 101],233
2,KKLDTFFVKLSLFTWR (P28R variant on PEPSCAN card) [SEQ ID NO: 539],226
3,KKLDTFFVKLSLFTCR (P28R variant on PEPSCAN card) [SEQ ID NO: 556],185
4,KKLDTFFVKLSLFTVR (P28R variant on PEPSCAN card) [SEQ ID NO: 565],163
5,KKLDTFFVKLSLFTSR (P28R variant on PEPSCAN card) [SEQ ID NO: 563],165
6,KKLDTFFVKLSLFTTR (P28R variant on PEPSCAN card) [SEQ ID NO: 568],152
7,KKLDTFFVKLSLFTNR (P28R variant on PEPSCAN card) [SEQ ID NO: 566],161
8,KKLDTFFVKLSLFTIR (P28R variant on PEPSCAN card) [SEQ ID NO: 564],163
9,KKLDTFFVKLSLFTAR (P28R variant on PEPSCAN card) [SEQ ID NO: 561],174
10,KKLDTFFVKLSDFTER (P28R variant on PEPSCAN card) [SEQ ID NO: 580],89
11,KKLDTFFVKLSEFTER (P28R variant on PEPSCAN card) [SEQ ID NO: 581],82
12,KKLDTFFVKLSLKTER (P28R variant on PEPSCAN card) [SEQ ID NO: 542],220
13,KKLDTFFVKLSLDTER (P28R variant on PEPSCAN card) [SEQ ID NO: 575],112
14,KKLDTFFVKLSLETER (P28R variant on PEPSCAN card) [SEQ ID NO: 579],98
15,CKLDTFFVKLSLFTER (P28R variant on PEPSCAN card) [SEQ ID NO: 546],215

# Target: T1, His-tagged P3028 peptide (PGE73)
# Test: as above
# Remark: another data set of the same source
# Experimental: as §1, §2
row,Binder,RAMPO Score [rampo units]
1,KKLDTFMVKLSLFTER (P28R variant on PEPSCAN card) [SEQ ID NO: 9],> 500
